Columns and labels:
[1] = molecular target: T1, Sox2 DBD, isolated, unlabelled (UniProt P48431 37-120); assay: smFRET titration; 200 mM salt (table; text gives 165 mM KCl); smFRET: 165 mM KCl or 200 mM salt (Supplementary Table 4), buffer details not in material; NMR: 20 mM NaH2PO4, 50 mM NaCl, 5 mM DTT, pH 5.5, 15 C; conditions: protein: recombinant; tags: His6-SUMO removed by ULP1; label: Cy3B and CF660R, one on each 5' end; blunt
[2] = molecular target: T2, Sox2 full-length, unlabelled (UniProt P48431 1-317); assay: as above; conditions: protein: recombinant; tags: His6-SUMO removed by ULP1; label: Cy3B and CF660R, one on each 5' end; blunt
T2 sequence (P48431 whole entry): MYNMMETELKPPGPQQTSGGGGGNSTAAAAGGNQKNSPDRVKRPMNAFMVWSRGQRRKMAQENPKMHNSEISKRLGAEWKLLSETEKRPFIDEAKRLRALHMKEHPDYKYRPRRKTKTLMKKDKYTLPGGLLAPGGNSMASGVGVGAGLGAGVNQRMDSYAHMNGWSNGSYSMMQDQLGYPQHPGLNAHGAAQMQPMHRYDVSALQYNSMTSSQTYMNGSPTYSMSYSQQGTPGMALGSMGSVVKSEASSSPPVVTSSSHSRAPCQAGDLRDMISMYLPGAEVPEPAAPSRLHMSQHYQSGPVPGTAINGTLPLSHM

[3] = molecular target: Sox2 DBD labelled at 37 and 120 (UniProt P48431 37-120, S37C;M120C); assay: smFRET titration; 200 mM salt; labelled protein; smFRET: 165 mM KCl or 200 mM salt (Supplementary Table 4), buffer details not in material; NMR: 20 mM NaH2PO4, 50 mM NaCl, 5 mM DTT, pH 5.5, 15 C; conditions: protein: recombinant; tags: His6-SUMO removed by ULP1; blunt
Sox2 DBD labelled at 37 and 120, sequence (P48431 37-120 S37C/M120C): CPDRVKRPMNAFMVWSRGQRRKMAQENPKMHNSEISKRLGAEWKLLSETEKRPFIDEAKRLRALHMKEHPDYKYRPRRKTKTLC

[4] = molecular target: T1, Sox2 DBD, isolated, unlabelled; assay: smFRET titration; 200 mM salt; smFRET: 165 mM KCl or 200 mM salt (Supplementary Table 4), buffer details not in material; NMR: 20 mM NaH2PO4, 50 mM NaCl, 5 mM DTT, pH 5.5, 15 C; conditions: protein: recombinant; tags: His6-SUMO removed by ULP1; label: Cy3B and CF660R, one on each 5' end; blunt
[5] = molecular target: T2, Sox2 full-length, unlabelled; assay: as above; conditions: protein: recombinant; tags: His6-SUMO removed by ULP1; label: Cy3B and CF660R, one on each 5' end; blunt
[6] = molecular target: Sox2 full-length labelled in the C-IDR (UniProt P48431 1-317, M120C;S315C); assay: smFRET (C-IDR expands, E 0.43 to 0.28); smFRET: 165 mM KCl or 200 mM salt (Supplementary Table 4), buffer details not in material; NMR: 20 mM NaH2PO4, 50 mM NaCl, 5 mM DTT, pH 5.5, 15 C; conditions: protein: recombinant; tags: His6-SUMO removed by ULP1; blunt
Sox2 full-length labelled in the C-IDR, sequence (P48431 whole entry M120C/S315C): as the sequence (P48431 whole entry) above, with M120C, S315C counted along it

[7] = molecular target: T2, Sox2 full-length, unlabelled; assay: NMR (1H15N HSQC CSP); 30 uM Sox2, 1.1-fold DNA, 50 mM NaCl, pH 5.5, 15 C; smFRET: 165 mM KCl or 200 mM salt (Supplementary Table 4), buffer details not in material; NMR: 20 mM NaH2PO4, 50 mM NaCl, 5 mM DTT, pH 5.5, 15 C; conditions: protein: recombinant; tags: His6-SUMO removed by ULP1; blunt

T1 sequence (P48431 37-120): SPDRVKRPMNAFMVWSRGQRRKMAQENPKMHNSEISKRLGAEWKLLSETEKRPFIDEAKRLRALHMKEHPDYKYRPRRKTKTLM

B1: 15 bp specific DNA, labelled (dsDNA)
DNA 1: ACTCTTTGTTTGGAT
DNA 2: ATCCAAACAAAGAGT
modifications: 5' C6-amino linker on both strands
[1]
  Kd: 0.3 ± 0.1 nM
[2]
  Kd: 0.4 ± 0.2 nM

B2: 30 bp specific DNA (dsDNA)
DNA 1: ATCCCATTAGCATCCAAACAAAGAGTTTTC
DNA 2: GAAAACTCTTTGTTTGGATGCTAATGGGAT
[3]
  Kd: 0.3 ± 0.2 nM

B3: 15 bp nonspecific DNA, labelled (dsDNA)
DNA 1: TCTATCTGTGTATGT
DNA 2: ACATACACAGATAGA
modifications: 5' C6-amino linker on both strands
[4]
  Kd: 11 ± 4 nM
[5]
  Kd: 6 ± 2 nM

B4: 15 bp specific DNA, unlabelled (dsDNA)
DNA 1: ACTCTTTGTTTGGAT
DNA 2: ATCCAAACAAAGAGT
[6]
  binding result: binds
[7]
  binding result: binds
